Source: the supplement of paper PMC9170038

test system: MS2 coat protein; assay: apparent KD of MS2 coat protein; higher = weaker reporter binding; conditions: Eterna round: R107; input ligand: theophylline 2 mM
In short: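 Apparent KD is reported per design as the median of normalised binding-curve fits across its clusters. The RNA switches were made by on-chip transcription from Illumina sequencing clusters. SNAP-549-labelled MS2 coat protein was then added in twofold steps (0.7 or 1.5 nM to 3 µM; 0.8–1.5 h to 10–20 min per step) in 100 mM Tris-HCl pH 7.5, 80 mM KCl, 4 mM MgCl2, without or with constant ligand.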

Sequence | apparent KD of MS2 coat protein [nM]
GAUCCGUACCAGACCUUCAAUGGACUCAGUCGAGGACCGGUACGGCCGCCACUCGGAGAAGAACAUGAGGAUCACCCAUGUGAUG [theeternabot_exclusion_MS2_Trp_A_36] | 34.9
UCGGGAACAUGAGGAUCACCCAUGUCAGAAGGAGCGCUGAGAGAAGCAGGUAGGUCGCUGACGCAGGAGCUCUCUUCCUGUACGC [#22 Exclusion - Arginine A] | 22.6
AUACAUGAGGAUCACCCAUGUCAUACAGAAGGAGCGUCACAUAAGACAGGUAGGUCGCUGAUAUAUACGUCACGAAUAGUGACGA [JR_SSArginiA_Sub017] | 20.4
UGUACAUAAUUAGGUUACCUAUGUACAGAAGGAGCGUCGAUGACGACAGGUAGGUCGCUGUUAACAUGAGGAUCACCCAUGUACA [Arg A Ex t4] | 57.3
GCUAGGUCUACGGCCGCCACUAGACGUGGGUAAGACAUGAGGAUCACCCAUGUACUACAGGCGAAUAGGACCGGGUAGACCUAGC [SSTB NP+V+V2 #12 Same Structure] | 46.1
GGGUGGUAGGCGGCCGCCACUGAUUUUUAUAUAUAUAUAACAUGAGGAUCACCCAUGUAGAUAUGCAGGACCGGGCCUGUUGUUU [aaaM] | 46.1

same assay, conditions: Eterna round: R107; input ligand: tryptophan 2.4 mM

Sequence | apparent KD of MS2 coat protein [nM]
GCACCAGGUACGGAUACCAGACAUUGCCGUUAGGGUGAACAUGAGGAUCACCCAUGUUUUGUCCCUUGGCAGCCGUACCUGGUGC [ETB NP+V+V2 #7 Same Structure] | 9.85
CUCCCGUGGUCGGCCGCCACUGGAGGCCUUGCGCGACAUGAGGAUCACCCAUGUUGGCCCGGCGUCAGGACCGGGAUCGCGUGAG [#1 Same State - Tryptophan B Attempt #10 (HarryS)] | 10.1
GUGUUAUGCUCGGCCGCCACUCUGACAUGAGGAUCACCCAUGUUGUACAUGAGGAUCACCCAUGUGAGGACCGGGAGAAACACGA [Exclusion Tryptophan B GF9] | 274
UACAUGAGGAUCACCCAUGUAUGAAUAGAUACCAGAUAAAAUAAGGUCCCUUGGCAGCUAGUGAAUCGAGGGUGGGUAUCAUGAU [#12 Exclusion-TheophyllineA] | 9.93
UUGACAUGAGGAUCACCCAUGUUAGCUGAAGGAGCGAGGUAGUACUCAGGUAGGUCGCAGAGAGCAGAGUUAGUUGUUCUCAUGU [X-ArgiA-ms2@4] | 18.6
ACAUGAGGAUCACCCAUGUGUCCUCGAAAACGAGGACCGGUACGGCCGCCACUCGAAAUAAGCGACAAGCGAAAAGCUUGUCGCA [Mat - Exclusion - Trytophan A - D22] | 406
GAAGGAGAGUGAUCCACUCCUUCUCUGGAAGGAGCGAGCGAAAGCUCAGGUAGGUCGCCAGAAACAUGAGGAUCACCCAUGUAAU [(A)''-(M)'-(A)'-(Arg1)-(Arg2)-(M1)-(M2)_Design7] | 82.3
AUCUCAUAGAGUGAUACCAGACUACAUGAGGAUCACCCAUGUUACAUUUAAAUAUCAUUUGUCCCUUGGCAGCACAUGAAGUACA [JR_Nu_ExcTheophyB_Sub018] | 27.6
GGUCUCGAGGGCGAUACCAGCUUGAUCGUACUGGCCUGGUACAUGAGGAUCACCCAUGUAAGCCCUUGGCAGCGCGCUCGAGACC [#1 Exclusion - Theophylline B Attempt #6 (HarryS)] | 17
AUCGUACCUGAUGAUACCAGCAAUUGCUCGUAACAUGAGGAUCACCCAUGUGACCAGUGAUGCCCUUGGCAGCAUGAUCGGUGCA [Same State - Theophylline B (Freestyle 20)] | 45.8
UGUAUGUGAUCUGAUACCAGUCCAACUGGUAAAACACGAGGAUCACCCGUGUAAAAUUGGGACCCUUGGCAGCAGAUCGCAUACU | 87.9
AAGACAUGAGGAUCACCCAUGUGGAGGGAUACCAGCCUGUGUGUGGGCCCUUGGCAGCUUAAAUUUAAUUUAAUUAAAUAAAUUU [Same State - Theophylline A] | 34.9
UCGGGAACAUGAGGAUCACCCAUGUCAGAAGGAGCGCUGAGAGAAGCAGGUAGGUCGCUGACGCAGGAGCUCUCUUCCUGUACGC [#22 Exclusion - Arginine A] | 15.9
AUACAUGAGGAUCACCCAUGUCAUACAGAAGGAGCGUCACAUAAGACAGGUAGGUCGCUGAUAUAUACGUCACGAAUAGUGACGA [JR_SSArginiA_Sub017] | 18.6
UGUACAUAAUUAGGUUACCUAUGUACAGAAGGAGCGUCGAUGACGACAGGUAGGUCGCUGUUAACAUGAGGAUCACCCAUGUACA [Arg A Ex t4] | 42.4
UGUAUGUGAUUUGAUACCAGUCCAACUGGUAAAACAUGAGGAUCACCCAUGUAAAAUUGGGACCCUUGGCAGCAAAUCGCAUACU [SSTheo B #21] | 534
GCACCAGGUACGGAUACCAGCUAUAGGCCCAAUGGGCGACAUGAGGAUCACCCAUGUAAUGGCCCUUGGCAGCUGUACCUGGUGC [SSThB NP+V+V2 #11 +-Same Structure] | 99.8
AUACACCUCGUCCAGGCAAUCUUUAGUGAUACCAGCUAACUCCGUGGCCCUUGGCAGCACAUGAGGAUCACCCAUGUGCGACAUC [Bioninen] | 11.6
GCUAGGUCUACGGCCGCCACUAGACGUGGGUAAGACAUGAGGAUCACCCAUGUACUACAGGCGAAUAGGACCGGGUAGACCUAGC [SSTB NP+V+V2 #12 Same Structure] | 15.1
CGCGUCCCGGACGAUACCAGAUAUGAGCGACACAUGAGGAUCACCCAUGUCAAUCAUGAGAUCCCUUGGCAGCGUUUGCACAACU [theeternabot_sameState_MS2_Theo_B_8] | 183
AGGGAACAUGAGGAUCACCCAUGUGCCGAUACCAGUGAUUUUCAGCACCCUUGGCAGCGGAACCUUUGUUAUAUUAUUCUUAGGG [theeternabot_sameState_MS2_Theo_A_25] | 41.2
GGGUGGUAGGCGGCCGCCACUGAUUUUUAUAUAUAUAUAACAUGAGGAUCACCCAUGUAGAUAUGCAGGACCGGGCCUGUUGUUU [aaaM] | 28.3
